Measured values published in patent US20090012261A1, “HLA Epitope Identification” (priority 2007, published 2009).

Molecular target: T1, TAP (Homo sapiens, UniProt Q03518+Q03519)
T1 sequence (Q03518 1-748): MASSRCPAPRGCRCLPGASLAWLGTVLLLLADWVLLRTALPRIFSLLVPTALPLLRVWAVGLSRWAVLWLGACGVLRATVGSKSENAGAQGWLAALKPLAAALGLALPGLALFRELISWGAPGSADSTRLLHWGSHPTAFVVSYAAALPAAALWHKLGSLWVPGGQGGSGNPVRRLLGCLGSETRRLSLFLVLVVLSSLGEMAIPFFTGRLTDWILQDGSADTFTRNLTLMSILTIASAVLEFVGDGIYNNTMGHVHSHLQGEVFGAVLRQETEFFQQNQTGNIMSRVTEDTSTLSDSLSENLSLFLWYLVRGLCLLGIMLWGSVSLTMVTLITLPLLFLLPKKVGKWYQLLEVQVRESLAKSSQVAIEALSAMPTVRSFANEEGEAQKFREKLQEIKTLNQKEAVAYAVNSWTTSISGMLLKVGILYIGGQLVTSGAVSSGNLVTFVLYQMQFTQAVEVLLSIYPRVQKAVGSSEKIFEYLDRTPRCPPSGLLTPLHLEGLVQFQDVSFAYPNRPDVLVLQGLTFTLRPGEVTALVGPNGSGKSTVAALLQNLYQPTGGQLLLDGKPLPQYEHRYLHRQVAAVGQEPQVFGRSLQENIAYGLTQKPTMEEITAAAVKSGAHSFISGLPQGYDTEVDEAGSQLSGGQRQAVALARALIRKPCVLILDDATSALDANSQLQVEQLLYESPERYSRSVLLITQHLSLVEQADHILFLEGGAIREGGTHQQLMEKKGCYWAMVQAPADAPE
T1 sequence (Q03519 1-686): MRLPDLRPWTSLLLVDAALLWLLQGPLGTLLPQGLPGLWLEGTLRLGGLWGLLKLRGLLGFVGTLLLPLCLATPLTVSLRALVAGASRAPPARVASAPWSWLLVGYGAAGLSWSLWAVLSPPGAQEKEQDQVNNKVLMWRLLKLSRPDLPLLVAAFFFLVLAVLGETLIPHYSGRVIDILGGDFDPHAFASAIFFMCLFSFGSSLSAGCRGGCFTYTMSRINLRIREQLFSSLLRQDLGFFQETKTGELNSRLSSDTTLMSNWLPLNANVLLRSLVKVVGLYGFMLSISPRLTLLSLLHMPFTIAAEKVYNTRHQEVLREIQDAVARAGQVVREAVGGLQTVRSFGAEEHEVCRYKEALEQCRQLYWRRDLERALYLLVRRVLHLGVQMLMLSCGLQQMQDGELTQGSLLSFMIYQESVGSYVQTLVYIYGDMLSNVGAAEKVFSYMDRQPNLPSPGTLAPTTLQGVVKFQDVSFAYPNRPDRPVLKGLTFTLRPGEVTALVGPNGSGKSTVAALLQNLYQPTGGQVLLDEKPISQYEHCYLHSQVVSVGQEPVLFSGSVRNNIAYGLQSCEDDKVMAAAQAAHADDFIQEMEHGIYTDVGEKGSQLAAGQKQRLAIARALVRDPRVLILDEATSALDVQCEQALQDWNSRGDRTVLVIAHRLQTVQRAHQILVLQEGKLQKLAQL
Assay: TAP affinity prediction (consensus scoring, log IC50)
Set-up: unit not given here
Conditions: variant versus RK9
Protocol: TAP affinity prediction: Predicting the TAP affinity, and therefore the TAP transport efficiency, was performed using the consensus scoring methods described by Peters et al. (49). The TAP affinity score is the sum of the matrix elements of the C-terminus and three N-terminal residues, for any arbitrary length represented by log (IC50) values. […] A low TAP score corresponds to a peptide well suited for TAP binding, and a high TAP score corresponds to low TAP affinity.
A TAP affinity algorithm was used to determine TAP-peptide binding log IC50 scores (49) (Table 5) and predict TAP escape mutations.

Question: For QLRPGGKKK, which “Increase of TAP log IC50 value versus RK9 (difference)” value is on record?
Answer: 1.81

Question: For RLRPGGKKQ, which “Increase of TAP log IC50 value versus RK9 (difference)” value is on record?
Answer: 0.57
